Laboratory results: the DeepSol protein solubility set

Assay: soluble on expression in E. coli; label from the status in PepcDB or PDB records

Sequence	soluble on expression in E. coli
MESYLTVIEQNGQLLVDSREVAEMVGKRHTDLLRSIDGYVAILLNAKLRSVEFFLESTYKDATGRSLKHFHLTRKGCDMVANKMTGAKGVLFTAQYVSKFEEMEKALKARPSLIDTYLDMNEDERAIAYFTERKAKRELQEQLTLAEPKVEKYDRFLNTDGLMKIGQVAKAIGIKGMGQNNLFRFLRENKVLIDGTNKNAPYQKYVERGFFQVKTQETSVGIKTITLVTPKGADFIVDLLKKHGHKREIAS	not soluble
METATHYDLFIIGGGINGCGLARDAAGRGFKVGLAEMNDLASGTSSASTKLIHGGLRYLEYYEFRLVREALKEREIIWRMAPHIVRPLRFLLPYHKKLRPAWMLRFGLFIYDYLGNWNQKLWRSKTVNFSKSFCSILKEEYHKGFEYSDARVDDARLVIANARDAEKWGAVIKVRTEVLSLKSEEKKWVVILRDKLSGKESCVTASYVANMTGPWINHILSNVLDCKENPPVRLVRGSHILVPKLYAHDRAYIFQNGDGRILFSIPYQEEFTLLGTTDCGYQGDPADVHITDTEIDYICTAASEYFVQPVLRESIVWTYSGVRPLYDDGASKAQEITRDYVLKEMGTESTPRILNLYGGKITTYRKLAEDAMKFVEKALGKKGKPWTINSTLPGGDFPHNKLDTIENKIALLVPDLDAFTYRRLARSYGCEALMIFANGKADKGKNFGHGLYEVEVKWLMEKEWAKTCEDVLWRRSKLGLLFNKKEINALTAYMQKIQDNEQNS	not soluble
METCFANLDEQTKEKAKSILEQKKSGKLTHEQAKEELTKLGVKLPEKEKHEDIFAGLDEATKTKAKAILDNEKKQLEALNVDLPHHKFFMKKEDK	not soluble
METDLLDADECSENEKTLESIEKVFSASHLLVKILEFSSAQHRQKLYIAGSRSRQGDLKGFLDLRLVNQQFNEGVCIAVRKEFKHIQIDIDDNFVRCNYFTIGLHHKPPEPGNRENANVEGEDGNPVEEDEEMPAHEDLPSEDTEDVRFLVKFLRWLAGTFDPIVENFKVFDSWSFKPCSLPPSWADRLTVFISMHPDMEYCNCEQCIRIARNCKESFGPLSFRMVEDALRDQNISYGALTFTDAFLADIAIAYTISIDNRDRFDANRFIRDFGGIRVDELTFAVQTLATYRDERPKPQPLEVLQLILRLWEAKTVEFEIVKFMENDYYLQRCAWERSGAFTLAHFATYSFQHFDEFVHVVPYKFSGTLDRDLRNEIMPIFDLRIDPSEGPLRMGSNLSLLSLASQNNENSTFTWINQGRIAFNMFRANHYMFITSGIVEFRGMLGTANWLKFTIRDMMRSTWGPRGSNVTERGKTVYWINFMEDVGDCIQIVWSEHAKELLETNFPNLVVTMNSSHAFRNCSNRRAATYNDSKRPDVQKKPINTFYCTFYDSVRNNTTHMKLIQIAN	not soluble
METEVMKSFNNELSSLFDSKNMSKNKIQDITKAAIKAKSQYKHVVFSVEKLINKCKPDQRLNVLYVIDSIVRASKHQLKEKDTFGPRFMKQFDKFLMPLLKCGQKEKMRTVRTLNLWMSNKVFKESEIQPLREMCKASGLTIDFEEVELAVKGKQADMSIYSGVYKKKPKRSSSSSQPKSRTPTNPHPDDGLLGAGPSSALRSVPDIPNFVLSEDYFLGTISEREMLELVQKFGIDRSGVLSKDKNLLQRALQIFAGSLSQKVEEVLAENNRINGSSIQNVLTKDFEYSDDEEEKEKEPQPEKQKNLPHAQVLLLAQSLLTQPQILAKLAEVLIPQGNPFGLPFPGEHIVPTSSAALTLGAPPPNLMALQQSLPPGFPNQQLGLPNLSGLNQAQLMNVQNAQNMLQLQQRAAQLQALQGNPNAQRNLLMLGNPLLNPFALQHGVNPMLNDLQAAAAAQQQAMLNEAAQSPEKKILELSGGNSGINNSGDVERARLREKEKERESKERRRMGLPPVRIGFTIIASRTLWLKKIPTNIVENDLKQAVESCGEASRVKVIGNRACAYITMENRRSANDVVSKMREVSVAKKMVKVYWARSPGMDSDQFSDLWDSNRGVLEIPYEKLPLDLVALCEGAMLDIESLPIEKKLLYKETGETVISIPPPNIQPPVPHPPPMGFPFQHQLTQLPGQPRPAGLPPGVPPMFNLNAPPPPGIPGYPPAPPPPGVGPPPPQGIPPMGFDPNKPPPPMFQQGFNAGAPPPPFGRGAGPMSSFPPPPRGGMHHMPPPPSFRGGRGGHGGPPPPHFDRRGGGGPPFRPENGRGRLLDQSEMWNREQREMRGGGGAGRDGGREHRDYDRDRSQIDRRRQDDMGARRRSRWGDDDRRDDDRRDDRRDDRRESRRRSPRSPRSPDRRTRRSPSYEREEPPVKKTSVEEETVSSTTLDELKPSVEPTPVPAPIPAPAPELKAAEEPVKIVAEHHEDQTDEVPMDLE	not soluble
METHEKIRLMRELNKWSQEDMAEKLAMSAGGYAKIERGETQLNIPRLEQLAQIFKIDMWDLLKSGGGGMVFQINEGDSGGDIALYASGDVSMKIEFLKMELKHCKEMLEQKDKEIELLRKLTETV	not soluble
METIKSVDIYELGSPGEKSSPWSSTILIVKLTSSNGNIGYGEAPTTFMTLPVKESMREVERVFKDQNYFNIEKNMREFYKHSFYLSRSMEATSALSAFEIASWDLIGKDLGTPVYNLLGGEYNSELRAYANGWYSDCLEPDDFVSRAKEYIKKGYTAFKFDPFRNNFDRIGNDGIKKAVDIVSAMRSELGENIDLLIECHGRFSTKYAIKVGQALDEFNPLFIEEPIHPEMELGLFDFKRYVNTPVALGERLLNKEDFARYISQGMVDIVQADLTNSKGILEAKKISAIVESFGGLMAFHNAFGPVQTAATLNVDYTLTNFLIQESFEDSWPDWKRNLFSGYRIENGHFKLSGKPGLGITADEKLMEKLIYDGMEEFNKNEPSWVVSGTYK	not soluble
METPKGTIIFTTVGRTHYGFDVFSLNIATSVERRLTDGVSVNFNAQFVNDKSDDVVFVSERNGSARIYKTRSGISKPEQIPGAPESYFHDRPIITQNNRLYFISAHEQPDRYFKNWSALYTVELNSAKREVTRVTPPDTADFSPAVSQSGDFLAVASYGTRSWGGEFHEINTDITVFKASKPETRVVICERGGWPTWSGDSTVFFHHQADDGWWSIFRVDIPENFTEYTDFPITPIRVTPSGLHCFTPAAFRDGKRIALATRRRGVNHRHIEIYDLENTTFQPVTESLNPSFHHYNPFVSPDSEFLGYHRFRGESTQGESIVPNIESIVSPIKTLRLLRINGSFPSSSPNGDLIALNSDFDINGGIKVSKSDGSKRWTLIKDRTAFYNSWSPTERHVIYTSLGPIFSPARIAVQIARIKFDPSDLTADKEDLPCDVKILTLENTGNNAFPSCSPDGKSIVFRSGRSGHKNLYIVDAVNGESNGGGIRRLTDGPWIDTMPCWSPKGDLIGFSSNRHNPENTAVFGAYVVRPDGTGLRRIQISGPEGSEEAARERVNHVSFNKDGDWLVFAANLSGVTAEPVTMPNQFQPYGDLYVVKLDGTGLRRLTWNGYEDGTPTWHTADELDLSQLNLNGQDGDKLEGQFEEPLWISCDI	soluble
METRTAENTAIFMCKCCNLFSPNQSELVTHVSEKHGEEGVNVDDVIIPLRPLNTPENPNPSKGGDEFLVMKRKRGRPKGSTKKPSTEEEVVENLVSPSEDGPLATEEGSRLAPSSLECSKCCRKFSNTRQLRKHICIIVLNLGEEDGDAGNESDLDLEKTYKEDDREKASKRPRAQKTEKVQKISGKEAGQLSGAKKPIISVVLTAHEAIPGATKIIPVEAGPPETGAPPPETTAADLVPRRGYQEYAIQQTPYEQPMKSSRLGPTQLKIFTCEYCNKVFKFKHSLQAHLRIHTNEKPYKCSQCSYASAIKANLNVHLRKHTGEKFACDYCSFTCLSKGHLKVHIERVHKKIKQHCRFCKKKYSDVKNLIKHIRDMHDPQDKKVKEALDELRLMTREGKRQLLYDCHICERKFKNELDRDRHMLVHGDKWPFACELCGHGATKYQALELHVRKHPFVYVCALCLKKFVSSIRLRSHIREVHGAAQETLVFTSSINQSFCLLEPGGDIQQEALGDQLQLAAEEFVCPEIDVRKEEACPGEAQPEVGLRELVVPGDAHAPPPGPLATPQSESSSLSPCKLETTVVSSDLNSLGVVSDDFLLKSDTSSAEPPAAAEATSDTQHRDSAQTQGEEVTLLLAKAKSAGPDPESSPGGRQKVGALPASESDSSTCLRANPTEASDLLPTVTDGGDLGVCQPDSCTPSSEHHPGSTAFMKVLDSLQKKQMNTSLCERIRKVYGDLECEYCGKLFWYQVHFDMHVRTHTREHLYYCSQCHYSSITKNCLKRHVIQKHSNILLKCPTDGCDYSTPDKYKLQAHLKVHTELDKRSYSCPVCEKSFSEDRLIKSHIKTNHPEVSMNTISEVLGRRVQLKGLIGKRAMKCPYCDFYFMKNGSDLQRHIWAHEGVKPFKCSLCEYATRSKSNLKAHMNRHSTEKTHLCDMCGKKFKSKGTLKSHKLLHTSDGKQFKCTVCDYTAAQKPQLLRHMEQHASFKPFRCAHCHYSCNISGSLKRHYNRKHPNEEYTNVGSGELAAEALIQQGGLKCPVCSFVYGTKWEFNRHLKNKHGLKVVEIDGDPKWEPAAETPEEPSTQYLYITEAEDVQGTQAAVAALQDLRYTSESGDRLDPTAVNILQQIIELGSETHDAAAVASVVAMAPGTVTVVKQVTDEEPSSNHTVMIQETLQQASVELAEQHHLVVSSDDVEGIETVTVYTQGGEASEFIVYVQEAVQPVEEQVGEQPAPEL	soluble
METTGDKAFYFLLKNCGHSLKFVDLRNSKRLHGRSFKLFGSQLESLYLDGSSKVDEMAFEDLCTSCGGLKELRINECYKITDENLSMIARRMEDLSILTLCGDGFKSLTSAGLIHISHMRNITELALDYNALVNDELLISISAGLPLLSSLSLANAGNDSSITAEGVSAIKNLKELTQLDASSLAAVNSKVLEQLGSLKKLEIIQLRNCTYLGDDGVRAKLRMPNIRHVDLSGSILVSNDSIQQFIKAFPSGPKLPPITLVVGGTAADASKLSVRGSRVVVDFSDYSTIVTMQTSQCSSSKFAIGGSASDAEGSDDEFEALTAQRSFYIDAVCGEEESPITDDGKLAEWAEKEARSLGLIKD	not soluble
METVTLSEARVYVGTYNKYNSGSLFGKWLDLSDYSDKDEFMEACRELHKDDQDPEFMFQDYENIPEALISESWLSDKFFELRDAIEKLSETQQEAFFVWCDHHNNDISEEDADDLISSFEDEYQGEYKDEEDYAYEIVEECYDLPEFAKTYFDYSAFARDLFMTDYWMDNGFVFRCA	not soluble
MEVARGLEGVLFTESRMCYIDGQQGKLYYYGIPIQELAEKSSFEETTFLLLHGRLPRRQELEEFSAALARRRALPAHLLESFKRYPVSAHPMSFLRTAVSEFGMLDPTEGDISREALYEKGLDLIAKFATIVAANKRLKEGKEPIPPREDLSHAANFLYMANGVEPSPEQARLMDAALILHAEHGFNASTFTAIAAFSTETDLYSAITAAVASLKGPRHGGANEAVMRMIQEIGTPERAREWVREKLAKKERIMGMGHRVYKAFDPRAGVLEKLARLVAEKHGHSKEYQILKIVEEEAGKVLNPRGIYPNVDFYSGVVYSDLGFSLEFFTPIFAVARISGWVGHILEYQELDNRLLRPGAKYVGELDVPYVPLEARE	soluble
MEVDGASDDEQEQIIRKLVKKPEFLSDEEDDSVEDQVVWECDVVVCNSTPNTEMFSVSYPSSKRDAWDAKRFPIARYKKNVRLLEMRFMTDTQLGSYDKKKAELMYMDGDVPKKGHGIDALRANDEIYEGRAFIHDHPIVNAIGFFKNGEFFIHPLTGAFEMHRSIQGLNKKKKSDGKSGKSDEDSSGEEEDVKPSSAAVRVKFSRPETERQKKRREASALHREKKIASDMWIPMKVHLKDGDPVAEKIDGISQNGLLLDDPEASRMSIRALVNRAIICGVKEELVIESGKEHMLSKQRIDDLPDPNLQLKAHMVKSHVMKTSEMRRLIDPSAMSTDKMIAKLKECASLVQGVWVLDSNLMFKNLAPAHSNTAGKTDLYRAELWRNARDLALCLIDGGHRVTRLTLMTCFKLSERDSDEILSTFGVKCEATRSWRLRVERDAQFLEDPAMKKHVVEQKAKWVQKFNELEKSLQESPAKSPKKK	not soluble
MEVMRGVRVIEGMNGGRFPYCNVVVVGDVVIDAGAGLEVMRKVNASLLVLSHLHPDHSSGAWLFKDVLAPAEGRITLDTLARRFVAPDLVESWKRFISAATGLREFECERYEEGVVVKEPEIVAVPVKGHTMDHHVFLIEQKVLFGADVDLTSFGPFYGNPEADPYLFEREMDKLLDIDFEIFVSAHSKPVFGKELEHHHHHH	not soluble
